Data on 1 molecule can be found in patent US6861578B1, “Method for plant protection against insects or nematodes by transformation with a nucleic acid encoding equistatin” (Plant Research International B.V., priority 1997, dated 2005).

For data set [1], the target named is T1, papain (Carica papaya, UniProt P00784).
T1 sequence (P00784 134-345): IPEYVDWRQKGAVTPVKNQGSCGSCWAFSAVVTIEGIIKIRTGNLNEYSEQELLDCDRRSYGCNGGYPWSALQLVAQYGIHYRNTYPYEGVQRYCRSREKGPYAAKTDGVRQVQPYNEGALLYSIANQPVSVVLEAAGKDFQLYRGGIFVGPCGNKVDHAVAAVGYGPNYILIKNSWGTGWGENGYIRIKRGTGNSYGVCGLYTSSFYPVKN
Kind of data set: Stoichiometry and inhibition constant of recombinant equistatin with papain (Z-Phe-Arg-pNA, microtiterplate). Format: biochemical. How it is done:
In a microtiterplate 20 μl papain solution (a fresh solution of 1 mg/ml (Sigma) in MES buffer titrated with E-64 to determine the active fraction, usually 17%) is combined with 0-80 μl of known protein concentration. MES buffer (50 mM MES, pH 6.5; 0.6 mg/ml L-cysteine; 1 mg/ml BSA fraction V) is added to a final volume of 150 μl. The mixture is incubated for 30 min at room temperature and subsequently 50 μl of substrate solution (60 μl of 15 mg/ml Z-Phe-Arg-pNA dissolved in methanol is diluted in 940 μl MES buffer before use). The plate is immediately placed in the nicrotiterplate reader and measured at 405 nm. Readings up to an OD600 of 0.3 are linear. Rates of change are used to determine the activity with increasing amounts of inhibitor. Results are graphically represented and at stoichiometric concentrations the amount of dissociated complex is determined to determine the apparent equilibrium dissociation constant (Ki). […] The apparent equilibrium dissociation constant for papain was estimated to be 0.6 nM in agreement with the data published for the purified protein (Lenarcic et al. (1997) J. Biol. Chem. 272: 13899-13903.

In data set [2] the test system is tri-peptidil-peptidase and endoprotease activity of Colorado potato beetle larval gut extracts. The data set can be described thus: Tri-peptidil-peptidase and endoprotease activity of Colorado potato beetle gut extract, pGlu-Phe-Leu-pNA. Format: biochemical, Leptinotarsa decemlineata. An excerpt:
(§1) Guts of final instar Colorado potato beetle larvae reared on methyl jasmonate induced plants were isolated and extracted essentially as described (Bolter and Jongsma, J. Insect Physiol. 41: 1071-1078). In these gut extracts the proteases that are sensitive to the protease inhibitors of potato are already complexed. The residual protease activity is composed of potato protease-inhibitor-insensitive proteases which were induced in response to the methyl jasmonate induced potato inhibitors. These proteases are the proteases that render the beetle larvae insensitive to protease inhibitor defense of the potato plant. Wle tested a broad range of different cysteisie protease inhibitors for activity specifically against these induced potato protease inhibitor-insensitive cysteine protesses. Nearly all of these inhibitors were purified at the Jozef Stefan Institute in Slovenia. Testing their potential against Colorado potato beetle was done using both general protein substrates (azocasein, table 2) as well as specific synthetic substrates (L-Arg-pNA, table 3; pGlu-Phe-Leu-pNA, table 4; Z-Phe-Arg-pNA, table 5; Z-Arg-Arg-pNA, table 6). In specific cases inhibitors were tested at two concentrations, eauimolar and in excess to the protease, in order to obtain an indication of the tightness of the complex. […] Importantly, this class of inhibitors was capable of inhibiting nearly all general cysteine protease activity. The equistatin peptide molecule and a functional derivative thereof were not very active against the aminopeptidase-like cysteine protease activity. […] The best combination of inhibitors for full toxicity against the Colorado potato beetle would therefore be a combination of equistatin or p41 invariant chain fragment and stefin-like inhibitors.

Data set [3] deals with T1, papain. Kind of data set: Kinetic analysis of papain inactivation (continuous rate assay). Format: biochemical.
Data set [4] has as its system amino-peptidase activity of Colorado potato beetle larval gut extracts. The data set can be described thus: Amino-peptidase activity of Colorado potato beetle gut extract, L-Arg-pNA. Format: biochemical, Leptinotarsa decemlineata.
From the text: as §1

In data set [5] the test system is Colorado potato beetle proteases. Kind of data set: Protease activity of Colorado potato beetle larval gut extract at pH 3, FITC-hemoglobin. Format: biochemical, Leptinotarsa decemlineata. The arrangement: inhibition of total protease activity / increase of inhibition by addition of equistatin to E64 / increase of inhibition by addition of equistatin to pepstatin: concentration or dose not given beside the values. The procedure:
(§2) Adult western flower thrips (Frankliniella occidentalis) and leafmirer flies (Liriomyza trifolii) adult were harvested from a culture maintained on chrysanthemum plants and complete thrips and flies were homogenized in extraction on buffer (200 mM β-alanine-HCl, pH 3.5) in a volume of 5 times the weight of the insects. The buffer pH was at the previously determined pH optimum of protease activity towards hemoglobin. Final instar Colorado potato beetle larvae maintained on potato plants as described in example 5 were checked for gut aspartic protease activity by preparing a total gut extract in pH 3 buffer which is optimal for Colorado potato beetle aspartic proteases (200 mM glycine, pH 3). Guts were homogenized in 100 μl buffer per gut. Third instar western corn rootworm larvae maintained on corn roots were used to remove the guts. Ten guts were homogenized in 100 μl water and spinned twice to remove insoluble material. Two types of buffers were used in the enzymatic assay. One with a pH presumably favoring cysteine proteases (50 mM MES, pH 6.5; 0.6 mg/ml L-cysteine) and one for detecting aspartic proteases (200 mM glycine, pH 3). Supernatants were stored at −20° C.
(§3) 2 μl gut extract was combined with 2 μl inhibitor (2 mM pepstatin in methanol, 4 mM E64 in water, 2 mg/ml recombinant equistatin in water. The concentration of the other proteinaceous inhibitors was not known exactly). Appropriate buffers were added to a final volume of 100 μl. After 15′ preincubation 20 μl substrate (5 mg/ml FITC-hemoglobin) was added and incubated for 30-45 min at 37 C.
(§4) Reaction was stopped by the addition of 100 μl 10% TCA. Tubes were centrifuged and 100 μl supernatant mixed with 100 μl 10 N NaOH was measured on a fluorimeter for the extent of hemoglobin hydrolysis. Measurements were done in duplicate on one (thrips, leafminer and western corn rootworm), or three (Colorado potato beetle) different gut extracts and varied by a maximum of +/−5%.

The test system of data set [6] is western corn rootworm cysteine and aspartic protease activity. The data set can be described thus: Protease activity of western corn rootworm larval gut extract, FITC-hemoglobin. Format: biochemical, Diabrotica virgifera. As to conditions: for residual protease activity: recombinant equistatin; for inhibition of protease activity: western corn rootworm. The arrangement: inhibition of protease activity: concentration or dose not given beside the values. How it is done: as §2, §3, §4

B1: equistatin: cysteine/aspartic protease inhibitor from sea anemone Actinia equina with three type I repeated thyroglobulin domains; purified or recombinant from E. coli (protein)
chain: SLTKCQQLQASANSGLIGTYVPQCKETGEFEEKQCWGSTGYCWCVDEDGKEILGTKIRGSPDCSRRKAALTLCQMMQAIIVNVPGWCGPPSCKADGSFDEVQCCASNGECYCVDKKGKELEGTRQQGRPTCERHLSECEEARIKAHSNSLRVEMFVPECLEDGSYNPVQCWPSTGYCWCVDEGGVKVPGSDVRFKRPTC
modifications: left off: large carriers; small tags and cut ends
notes: purified or recombinant from E. coli
Consider B1, for which the “molecules of papain inhibited by one molecule of equistatin” value with papain [1] was “approximately 1 molecule”. Also, the entries for the “% of residual activity, equimolar” value in data set [2] (equimolar) and in data set [4] (equimolar) were 10% and 85%, respectively. The “% of residual activity, excess inhibitor” value in data set [2] (excess inhibitor) is on record as −5%; in data set [4] (excess inhibitor), 75%. Moreover, the Ki with papain [3] (Ki calculated from the ratio kd/ka) is 0.57 ± 0.04 nM. Further, in the data set with papain [3] (continuous rate assay, printed value is 10^4 × kd), the “10^4 × kd” value is 65 ± 1.5 s^−1. In the data set with papain [3] (continuous rate assay, printed value is 10^−6 × ka), the “10^−6 × ka” value is on record as 12 ± 0.6 M^−1 s^−1. For the same molecule, the “increase of inhibition by addition of equistatin to E64” value in data set [5] (Colorado potato beetle, pH3) is reported as 42%. Also, the “increase of inhibition by addition of equistatin to pepstatin” value in data set [5] (Colorado potato beetle, pH3) was 12%. Also, in data set [5] (Colorado potato beetle, pH3), the “inhibition of both aspartic and cysteine protease activity” value was “more than 50%”. The “inhibition of total protease activity” value in data set [5] (Colorado potato beetle, pH3) came to 62%. For the same molecule, the residual protease activity in data set [5] (colorado potato beetle pH 3, recombinant equistatin) is listed as 36%; in data set [6] (western corn rootworm pH 3), 2%; in data set [6] (western corn rootworm pH 6.5), 7%. Further, the “inhibition of protease activity” value in data set [6] (pH 3) was 98%; in data set [6] (pH 6.5), 93%.
